{
  "source": "paper PMC2867956",
  "about": "“Interdomain Interactions Control Ca^2+-Dependent Potentiation in the Cation Channel TRPV4” (PLoS ONE, 2010)",
  "tested_on": "CFP-fused N1",
  "test": "FRET acceptor bleaching, N1/C1 interaction in HEK293 cells",
  "type": "cell-based, human",
  "details": "YFP-fused C1 and CFP-fused N1 coexpressed in HEK293 cells",
  "text": "(See Methods S1 for details).",
  "data": [
    {"molecule": "C1: full-length TRPV4 C terminus, residues 721-871 (protein, UniProt Q9HBA0 721-871, looked up, fragment) TVGQVSKESKHIWKLQWATTILDIERSFPVFLRKAFRSGEMVTVGKSSDGTPDRRWCFRVDEVNWSHWNQNLGIINEDPGKNETYQYYGFSHTVGRLRRDRWSSVVPRVVELNKNSNPDEVVVPLDSMGNPRCDGHQQGYPRKWRTDDAPL", "values": [
      {"measurement": "FRET interaction of N1 and C1", "result": "interact"}
    ]}
  ]
}
